# Experimental data published in patent US8119572B2, “Methods for determining protein binding specificity using peptide libraries” (Wisconsin Alumni Research Foundation, priority 2005, dated 2012).
# No end group written: not given here.
# Target: T1, SIRT1 (Homo sapiens, UniProt Q96EB6)
# T1 construct: made in house
# T1 sequence (Q96EB6 1-747): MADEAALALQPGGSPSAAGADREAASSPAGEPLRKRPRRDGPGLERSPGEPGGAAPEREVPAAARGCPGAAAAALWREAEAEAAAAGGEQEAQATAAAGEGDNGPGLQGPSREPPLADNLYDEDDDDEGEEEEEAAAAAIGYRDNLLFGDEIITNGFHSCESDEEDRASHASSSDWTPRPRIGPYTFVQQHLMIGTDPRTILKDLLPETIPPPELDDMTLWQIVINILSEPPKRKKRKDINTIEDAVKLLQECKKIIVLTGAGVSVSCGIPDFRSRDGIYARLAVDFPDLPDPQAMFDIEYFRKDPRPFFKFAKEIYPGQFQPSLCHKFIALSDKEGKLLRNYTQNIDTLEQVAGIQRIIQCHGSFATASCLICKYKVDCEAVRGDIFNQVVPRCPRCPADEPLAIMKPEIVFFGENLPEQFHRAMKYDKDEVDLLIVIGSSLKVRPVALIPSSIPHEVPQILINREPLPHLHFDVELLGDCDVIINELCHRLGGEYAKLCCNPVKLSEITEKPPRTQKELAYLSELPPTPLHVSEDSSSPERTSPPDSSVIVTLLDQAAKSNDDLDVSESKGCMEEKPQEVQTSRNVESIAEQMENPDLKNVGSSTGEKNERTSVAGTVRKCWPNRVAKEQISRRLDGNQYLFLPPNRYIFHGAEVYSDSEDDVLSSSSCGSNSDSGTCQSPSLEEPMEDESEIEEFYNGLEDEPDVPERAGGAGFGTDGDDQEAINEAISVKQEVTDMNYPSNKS
# Experiment: Radioactive TLC-based [32P]-NAD+ in-solution kinetic analysis of resynthesized hits and non-hits
# Assay type: biochemical
# Conditions: for fold difference in catalytic activity in favor over WP(AcK)QQ: compared with WP(AcK)QQ, Table 3 values
# Protocol: All solution phase Sir2 assays were carried out at 25° C. in 50 mM Tris.HCl. Reactions were done in 50-100 μL with 0.1-1.5 μM enzyme, 0.1-1.2 mM NAD^+, 0.5-1000 μM peptide and 1 mM DTT. Reaction mixtures were quenched with TFA to a final concentration of 1% after 5-10 min and nicotinamide levels were quantitated by HPLC at 264 nm.
# Alternatively, [^32P]-NAD^+ (10 mCi/mL) was used in assays and quenched reaction mixtures were spotted on a silica TLC plate and run in a chamber containing 60% ethanol and 40 2.5 mM ammonium acetate for 3-4 hours. Levels of ^32P-OAADPr and ^32P-NAD^+ were then quantitated by phosphorimaging and the fraction turnover was calculated. Saturation curves were done at varying concentrations of peptide while holding that of NAD^+ constant. Time points were chosen such that product formation never exceeded 20% conversion and data were plotted as rate (s^−1) vs. peptide concentration. Plots were fitted to the Michaelis-Menten equation, v=[(kcat/Km)[S]]/(1+[S]/Km) using Kaleidagraph software (Reading, Pa.) to extract Km and kcat/Km.
# To validate the results of the library screen, select hits and non-hits were resynthesized and subjected to in-solution kinetic analysis (Table 3). A radioactive TLC-based assay was employed with subsaturating levels of [^32P]-NAD^+ to determine the relative catalytic efficiencies (Jackson et al., 2003, J. Biol. Chem. 278: 50985-50998). In addition, two “consensus” peptides containing residues occurring with the highest and lowest frequency at each position, independent of context, were analyzed. For comparison, a 5-mer comprised of a sequence corresponding to a known site for p53 deacetylation by SIRT1 was assayed (Table 3).
# In Table 3, efficiencies (^x=average) were obtained by fitting the data from [^32P]-NAD^+ assays to the modified Michaelis-Menten equation, v=[(kcat/Km)[S]]/(1+[S]/Km). […] Catalytic efficiencies of peptides containing the residues of the highest^b/lowest^c frequency at each position and the sequence relevant to p53 deacetylation in vivo^d are shown for comparison.
Substance,"catalytic activity, comparison of hits and non-hits in words (in-solution kinetic analysis)",fold difference in catalytic activity in favor over WP(AcK)QQ
AY(AcK)EV (Ac-AYK(Ac)EV) [resynthesized select non-hit],comparable to those of a few of the hits,–
QP(AcK)QI (Ac-QPK(Ac)QI) [resynthesized select hit of SIRT1 library screen],–,18 fold
WH(AcK)QQ (Ac-WHK(Ac)QQ),–,seven
